Patent publication US20040266665A1

Assays:
[1] = biological target: human thyroid stimulating hormone receptor (TSHR) (human) (UniProt P16473); experiment: cell-based or functional assay
[2] = biological target: human thyroid stimulating hormone receptor (TSHR) (human) (UniProt P16473); experiment: receptor binding affinity; assay and reference not described (reference presumably wild type hTSH)

Substance	Vmax of cyclic AMP production in CHO-JP09 cells, compared to wild type TSH [1]	in vitro activity (cyclic AMP production in CHO-JP09 cells) over that of the α4K/wild type β heterodimer [1]	potency in stimulation of cyclic AMP production in CHO-JP09 cells, compared to wild type TSH [1]	fold increase in binding affinity [2]	hormone potency [1]
mutant TSH heterodimer comprising the α4K subunit (αQ13K+αE14K+αP16K+αQ20K) and a fusion protein of the TSH β subunit and the CTEP of hCG (from UniProt P0DN86 134-165) (ligand)	1.5 fold	3 to 4 fold	200 fold	–	–
α4K/β3R hTSH analog (heterodimer of α4K mutant α subunit and β3R mutant TSH β subunit) (from UniProt P01215 25-116; P01222 21-132) (ligand)	–	–	–	< 50000 fold	< 1300 fold
